Results from US6468985B1, “Retinoblastoma protein-interacting zinc finger proteins” (The Burnham Institute, priority 1994, dated 2002).

Assays:
B3 mutant of Rb = target: T1, B3 mutant of Rb (Homo sapiens, UniProt P06400); experiment: binding of GST-RIZ (245-573) to 35S-labeled Rb mutant, immunoprecipitation with anti-RIZ antiserum; settings: deletion C-terminal to the Rb binding pocket
T1 construct: made in house; host or cells: in vitro transcription/translation
T1 sequence (P06400 1-803): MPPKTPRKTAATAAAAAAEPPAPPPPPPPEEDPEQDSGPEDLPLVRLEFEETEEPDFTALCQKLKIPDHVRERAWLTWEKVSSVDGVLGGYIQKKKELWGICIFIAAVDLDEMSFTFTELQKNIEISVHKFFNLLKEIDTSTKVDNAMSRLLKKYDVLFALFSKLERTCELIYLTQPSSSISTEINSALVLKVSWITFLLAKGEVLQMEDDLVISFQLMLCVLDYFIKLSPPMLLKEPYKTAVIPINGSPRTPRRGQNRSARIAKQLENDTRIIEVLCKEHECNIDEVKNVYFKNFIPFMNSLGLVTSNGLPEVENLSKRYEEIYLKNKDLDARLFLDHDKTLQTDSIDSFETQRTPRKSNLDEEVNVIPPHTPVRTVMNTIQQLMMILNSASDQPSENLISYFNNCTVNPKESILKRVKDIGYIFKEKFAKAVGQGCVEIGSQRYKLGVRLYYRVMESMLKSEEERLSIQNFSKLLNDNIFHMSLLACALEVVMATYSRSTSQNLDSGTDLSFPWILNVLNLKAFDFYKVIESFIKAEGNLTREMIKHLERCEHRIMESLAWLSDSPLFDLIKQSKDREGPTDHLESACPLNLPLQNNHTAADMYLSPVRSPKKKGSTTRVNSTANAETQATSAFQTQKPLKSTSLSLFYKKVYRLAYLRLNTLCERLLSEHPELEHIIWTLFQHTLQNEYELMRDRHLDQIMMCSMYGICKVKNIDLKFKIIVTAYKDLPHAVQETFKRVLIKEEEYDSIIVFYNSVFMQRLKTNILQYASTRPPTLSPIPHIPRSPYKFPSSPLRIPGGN
Experimental: The 56 kD Rb fragment that binds to RIZ is a C-terminal fragment containing the Rb pocket binding region and a C-terminal extension. To further define the portion of 56 kD Rb that binds to RIZ, several Rb mutant polypeptides were tested for binding to RIZ. Mutant and full length Rb were cloned and in vitro transcribed/translated as described previously (Huang et al., supra, 1990). H209 is a point mutation resulting in a single amino acid change in Rb that was identified in the small cell lung cancer H209 cell line (American Type Culture Collection (ATCC) #HTB 172). The various Rb forms were tested for binding to glutathionine S-transferase (GST) fused to a fragment of RIZ from amino acid position 245-573 (GST-RIZ (245-573)). This RIZ fragment contains all of the E1A motifs related to binding Rb and was constructed by cloning a Stu I-Hpa I RIZ fragment (nucleotide 795-3068) into vector pBSK+ to make pBSK+SH. An Eco RI fragment was removed from pBSK+SH and ligated into pGEX-KG to produce vector pKG7.1S containing GST-RIZ (245-573).
The binding between purified GST-RIZ (245-573) and the above radiolabeled Rb wild-type and deletion mutants was determined by immunoprecipitation with an anti-RIZ antiserum followed by SDS-PAGE and autoradiography. […]

rat ovary genomic DNA = experiment: filter-based DNA-binding assay
Excerpt: To evaluate whether the zinc finger domains of RIZ can bind to DNA, the RIZ finger motifs 1 to 3 from amino acid position 245-573 or finger 4 to 6 from amino acid position 1114-1260 were expressed as GST fusion proteins, GSTZ13 and GSTZ46, respectively. The GST-RIZ fragments were purified by glutathionine agarose chromatography (Guan and Dixon, Anal. Biochem. 192:262-267 (1991), which is incorporated herein by reference) and evaluated for binding in a filter-based DNA-binding assay (Sukegawa and Blobel, Cell 72:29-38 (1993), which is incorporated herein by reference). To obtain GSTZ46, a fragment encoding RIZ (1114-1260) was made by PCR using primers 5′-GTGGTCCAAG AAACATTC-3′ (SEQ ID NO: 17) and 5′-TCGTGTAAAG CTCTTCAG-3′ (SEQ ID NO: 18) and pCMVRIZ as template. The PCR fragment was cloned into pBKS+, then into pGEX-KG (Guan and Dixon, supra, 1991).
The filter-based DNA binding assay was performed by electrophoresing 0.5 μg of purified GST or GST-RIZ fusion proteins by SDS-PAGE and transferring the proteins to nitrocellulose. The proteins were renatured by incubating the nitrocellulose for 3 hr in binding buffer (50 mM Tris-HCl, pH 8, 100 mM KCl, 0.1% Triton X-100™, 10% glycerol, and 0.1 mM ZnCl2). ^32P-labeled, randomly sheared rat ovary genomic DNA was added to the buffer and the nitrocellulose was incubated for an additional 3 hr. […]

B1: GST-RIZ (245-573): glutathionine S-transferase fused to RIZ fragment a.a. 245-573 containing zinc fingers 1-3 (protein)
chain: CEPQPEVDGKQEVTDCEVNDVEEEELEEEEELEEEEEEELGEDGVEEADMPNESSAKEPEIRCEEKPEDLLEEPQSMSNEAREDSPDVTPPPHTPRAREEANGDVLETFMFPCQHCERKFATKQGLERHMHIHISTINHAFKCKYCGKRFGTQINRRRHERRHETGLKRRPSMTLQSSEDPDDGKGENVTSKDESSPPQLGQDCLILNSEKTSQEVLNSSFVEENGEVKELHPCKYCKKVFGTHTNMRRHQRRVHERHLIPKGVRRKGGLLEEPQPPAEQAPPSQNVYVPSTEPEEEGETDDVYIMDISSNISENLNYYIDGKIQTNSS
modifications: left off: a dimerising Fc or GST
binding to B3 mutant of Rb (B3 mutant of Rb): showed binding | binding to 32P-labeled rat DNA (rat ovary genomic DNA; 0.5 μg protein, binding buffer with 0.1 mM ZnCl2): bound | zinc dependence of DNA binding (rat ovary genomic DNA; with ZnCl2 versus 10 mM EDTA, 2 mM DTT and no ZnCl2): Zn^++ ion dependent manner
